Data from patent US20150203575A1.
Each block holds one substance with its values, some of them ahead of it.

What was measured:
[1] = target: human COLEC12 expressed on cells (human) (UniProt Q5KU26); test: flow cytometry, transfected 293 cells, 2nd Ab anti-goat-IgG-PE; untransfected 293: 0.098
[2] = target: human CD99 expressed on 293T cells (human) (UniProt P14209); test: as above
[3] = target: human NPDC1 expressed on cells (human) (UniProt Q9NQX5); test: as above
[4] = target: FceRII expressed on cells (human) (UniProt P06734); test: flow cytometry, transfected 293T cells, 50 µg/ml
FceRII expressed on cells (human), sequence (P06734 whole entry N269T): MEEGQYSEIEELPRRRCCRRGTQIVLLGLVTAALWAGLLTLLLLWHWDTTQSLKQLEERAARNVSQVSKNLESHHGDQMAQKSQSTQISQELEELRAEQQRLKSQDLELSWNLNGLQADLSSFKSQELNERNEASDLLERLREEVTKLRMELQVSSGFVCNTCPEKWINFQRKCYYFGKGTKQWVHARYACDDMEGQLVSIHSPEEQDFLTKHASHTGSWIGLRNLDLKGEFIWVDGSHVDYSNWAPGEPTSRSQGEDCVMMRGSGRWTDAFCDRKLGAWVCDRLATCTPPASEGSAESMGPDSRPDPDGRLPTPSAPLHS

[5] = target: FceRII expressed on cells (human) (UniProt P06734); test: flow cytometry, transfected 293T cells, 2 µg/ml
[6] = target: human NPDC1 expressed on cells (human) (UniProt Q9NQX5); test: flow cytometry, transfected 293 cells, 2nd Ab anti-mouse IgG2a FITC; untransfected 293: 0
[7] = target: human COLEC12 expressed on cells (human) (UniProt Q5KU26); test: flow cytometry, transfected 293 cells, 2nd Ab anti-His-PE; untransfected 293: 0.13
[8] = target: human CD99 expressed on 293T cells (human) (UniProt P14209); test: as above
[9] = target: human NPDC1 expressed on cells (human) (UniProt Q9NQX5); test: as above
[10] = target: human COLEC12 expressed on cells (human) (UniProt Q5KU26); test: flow cytometry, transfected 293 cells, 2nd Ab anti-His-PE; untransfected 293: 0.059
[11] = target: human CD99 expressed on 293T cells (human) (UniProt P14209); test: as above
[12] = target: human NPDC1 expressed on cells (human) (UniProt Q9NQX5); test: as above

mPILRβ-his (R&D) (receptor), sequence (Q2YFS2 29-195): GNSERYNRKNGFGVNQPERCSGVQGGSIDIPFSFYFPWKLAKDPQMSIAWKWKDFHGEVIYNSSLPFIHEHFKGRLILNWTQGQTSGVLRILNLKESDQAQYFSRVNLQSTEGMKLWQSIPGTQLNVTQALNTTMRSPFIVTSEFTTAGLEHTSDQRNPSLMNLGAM
human NPDC1 expressed on cells (human), sequence (Q9NQX5 35-325 H113Q limits assumed): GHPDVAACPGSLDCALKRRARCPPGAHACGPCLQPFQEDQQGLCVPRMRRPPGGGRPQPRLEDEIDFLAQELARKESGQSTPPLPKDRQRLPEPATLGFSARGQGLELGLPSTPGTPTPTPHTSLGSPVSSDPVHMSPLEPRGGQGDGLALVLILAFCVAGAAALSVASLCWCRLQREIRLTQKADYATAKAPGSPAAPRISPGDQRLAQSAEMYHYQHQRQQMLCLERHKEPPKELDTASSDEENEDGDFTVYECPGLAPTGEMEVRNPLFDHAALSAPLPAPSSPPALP
human COLEC12 expressed on cells (human), sequence (Q5KU26 whole entry S522P/G606S): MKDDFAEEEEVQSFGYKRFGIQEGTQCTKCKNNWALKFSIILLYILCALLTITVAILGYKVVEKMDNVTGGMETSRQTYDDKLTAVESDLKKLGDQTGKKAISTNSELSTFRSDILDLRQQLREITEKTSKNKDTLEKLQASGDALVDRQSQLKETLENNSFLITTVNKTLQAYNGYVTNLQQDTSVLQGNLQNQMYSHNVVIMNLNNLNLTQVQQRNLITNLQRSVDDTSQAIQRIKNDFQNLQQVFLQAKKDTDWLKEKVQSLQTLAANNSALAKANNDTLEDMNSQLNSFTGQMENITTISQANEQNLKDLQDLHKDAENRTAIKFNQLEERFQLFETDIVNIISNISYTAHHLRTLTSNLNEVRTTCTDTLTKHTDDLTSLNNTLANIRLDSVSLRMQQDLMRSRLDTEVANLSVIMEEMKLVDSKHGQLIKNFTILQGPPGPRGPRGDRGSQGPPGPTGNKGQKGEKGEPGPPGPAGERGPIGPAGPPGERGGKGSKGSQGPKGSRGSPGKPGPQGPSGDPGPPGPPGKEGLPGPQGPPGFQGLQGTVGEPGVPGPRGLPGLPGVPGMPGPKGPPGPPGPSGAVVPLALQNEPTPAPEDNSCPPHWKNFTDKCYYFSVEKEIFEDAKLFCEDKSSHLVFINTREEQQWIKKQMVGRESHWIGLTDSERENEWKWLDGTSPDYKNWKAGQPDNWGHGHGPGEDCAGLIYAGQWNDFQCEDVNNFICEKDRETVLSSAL
human CD99 expressed on 293T cells (human), sequence (P14209 23-185): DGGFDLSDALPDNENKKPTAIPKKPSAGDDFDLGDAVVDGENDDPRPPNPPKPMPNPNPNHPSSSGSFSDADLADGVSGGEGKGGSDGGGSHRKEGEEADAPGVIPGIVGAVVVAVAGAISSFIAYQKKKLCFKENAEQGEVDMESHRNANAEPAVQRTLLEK
mPILRα-his (R&D) (receptor), sequence (Q2YFS3 32-198): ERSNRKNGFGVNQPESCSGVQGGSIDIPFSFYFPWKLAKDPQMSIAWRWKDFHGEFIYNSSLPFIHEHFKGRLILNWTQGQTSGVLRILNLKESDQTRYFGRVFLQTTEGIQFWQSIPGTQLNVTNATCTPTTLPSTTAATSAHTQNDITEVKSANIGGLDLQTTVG

- % cells in lower right quadrant [7]: 12.3%
- % cells in lower right quadrant [8]: 0.24%
- % cells in lower right quadrant [9]: 23.6%
Substance: mPILRα-his (R&D) (receptor)

- % cells in lower right quadrant [4]: 0.014%
Substance: mPILRαR133A-Fc (from UniProt Q2YFS3 32-198) (Fc fusion)

- % cells in lower right quadrant [10]: 0.062%
- % cells in lower right quadrant [11]: 0.043%
- % cells in lower right quadrant [12]: 0.22%
Substance: mPILRβ-his (R&D) (receptor)

More lines, now with the values behind:

Substance: Goat IgG (Control) (antibody)
- % cells in lower right quadrant [1]: 2.19%
- % cells in lower right quadrant [2]: 0.19%
- % cells in lower right quadrant [3]: 1.28%

Substance: hPILRα-Fc (from UniProt Q9UKJ1 20-197) (Fc fusion)
- % cells in lower right quadrant [4]: 58.1%
- % cells in lower right quadrant [5]: 15.5%

Substance: hPILRαR126A-Fc (from UniProt Q9UKJ1 20-197) (Fc fusion)
- % cells in lower right quadrant [5]: 0.028%

Substance: mIgG2a (Control) (antibody)
- % cells in lower right quadrant [6]: 0.018%

Substance: mPILRα-Fc (from UniProt Q2YFS3 32-198) (Fc fusion)
- % cells in lower right quadrant [4]: 47.8%
- % cells in lower right quadrant [5]: 30.3%
